The target of experiment [1] is T1, Human TROP2 full length, on tumor cells (HCT116, MDAMB231, NCI-H292) (human, UniProt P09758 31-323).
T1 sequence: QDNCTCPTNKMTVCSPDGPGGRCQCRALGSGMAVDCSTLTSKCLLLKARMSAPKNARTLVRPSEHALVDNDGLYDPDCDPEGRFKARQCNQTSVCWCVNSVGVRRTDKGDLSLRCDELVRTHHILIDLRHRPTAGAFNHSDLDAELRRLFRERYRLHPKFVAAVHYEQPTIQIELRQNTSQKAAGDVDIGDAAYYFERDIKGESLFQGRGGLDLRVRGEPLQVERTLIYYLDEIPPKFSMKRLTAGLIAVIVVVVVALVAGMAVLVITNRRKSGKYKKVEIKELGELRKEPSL
The experiment in a line: cell-based or functional assay.

Experiment [2] addresses T2, Human TROP2 ECD (31-274 AA), biotinylated (human, UniProt P09758 31-274, biotinylated (site not stated)).
T2 construct: the entry is already residues 31-274; also called Human TROP2-biotin; hTROP2-Biotin
T2 sequence: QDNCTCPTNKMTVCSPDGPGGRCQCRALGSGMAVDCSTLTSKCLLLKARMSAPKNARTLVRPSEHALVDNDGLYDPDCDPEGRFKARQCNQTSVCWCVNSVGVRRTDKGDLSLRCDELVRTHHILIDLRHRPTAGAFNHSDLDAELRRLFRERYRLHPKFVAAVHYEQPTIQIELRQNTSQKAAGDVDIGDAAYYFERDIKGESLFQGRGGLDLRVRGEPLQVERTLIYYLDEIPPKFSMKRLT
In words: ELISA, immobilized TROP2, HRP secondary antibody.

Experiment [3] deals with T1, Human TROP2 full length, on tumor cells …. In words: cell-based or functional assay. The source holds these as a separate data set.
For experiment [4] the target is unchanged. The experiment in a line: cell-based or functional assay. The source holds these as a separate data set.
The target is the same in experiment [5]. The experiment in a line: cell-based or functional assay. This is another data set of the same source.
In experiment [6] the target is T2, Human TROP2 ECD (31-274 AA), …. In words: TROP2 binding ELISA; the table's head prints only 'EC50', the unit is that of the axis Log [TCE nM]. (An ELISA detects its analyte on a solid surface through an enzyme-linked reagent.)
The target in experiment [7] is T3, Cynomolgus monkey TROP2 full length, on recombinant HEK293 cells (cynomolgus monkey, UniProt P09758 31-323 (human entry)).
T3 chain: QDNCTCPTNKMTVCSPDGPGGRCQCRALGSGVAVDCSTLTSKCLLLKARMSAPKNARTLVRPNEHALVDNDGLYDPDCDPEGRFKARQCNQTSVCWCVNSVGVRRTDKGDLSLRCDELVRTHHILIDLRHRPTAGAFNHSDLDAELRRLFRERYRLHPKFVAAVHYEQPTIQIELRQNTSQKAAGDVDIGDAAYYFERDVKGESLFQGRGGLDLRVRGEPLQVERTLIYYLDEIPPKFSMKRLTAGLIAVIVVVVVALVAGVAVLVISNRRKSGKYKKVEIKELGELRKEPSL
The experiment in a line: cell-based or functional assay.

A further experiment has as its target T4, Cyno CD3 (Antigen was biotinylated for capture on neutravidin plates; the site of biotin and any tag are not stated.).
T4 construct: also called cynomolgus monkey CD3
T4 chain: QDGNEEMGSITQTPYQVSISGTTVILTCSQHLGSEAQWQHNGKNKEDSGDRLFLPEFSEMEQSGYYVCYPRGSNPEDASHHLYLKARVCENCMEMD
In words: Cyno CD3 binding ELISA.

The target of experiment [8] is T1, Human TROP2 full length, on tumor cells …. In words: cell-based or functional assay. This is another data set of the same source.
Experiment [9] deals with T5, human CD3 epsilon, biotinylated (human, UniProt P07766 23-126, limits assumed, biotinylated (site not stated)).
T5 construct: Printed in places as CD36, CD38, CD3c or CD3&; also called CD3e-bio; human CD3e-biotin
In words: Human CD3 binding ELISA.

The target in experiment [10] is T2, Human TROP2 ECD (31-274 AA), …. The experiment in a line: BLI, human TROP2-biotin (10 nM) on sensor, 50 nM TCE. A general note: Biolayer interferometry detects binding as a change in optical thickness at a sensor tip.
Experiment [11] addresses T1, Human TROP2 full length, on tumor cells …. The experiment in a line: cell-based or functional assay. The source holds these as a separate data set.
Experiment [12] deals with T2, Human TROP2 ECD (31-274 AA), …. In words: TROP2 binding ELISA, biotinylated TROP2 on neutravidin plates.
The target in experiment [13] is T5, human CD3 epsilon, biotinylated. The experiment in a line: CD3 binding ELISA.

Where two headings read alike, the source gives them in different places.

T5 sequence (P07766 23-126 limits assumed): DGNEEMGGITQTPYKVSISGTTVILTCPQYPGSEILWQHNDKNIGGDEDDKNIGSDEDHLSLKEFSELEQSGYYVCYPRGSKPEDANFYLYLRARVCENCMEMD

B1: TCE-4 (TROP2 Fab HC F108A TCE, scFv on the Fab LC) (bispecific antibody)
light: not shown
heavy: QVQLQQSGSELKKPGASVKVSCKASGYTFTNYGMNWVKQAPGQGLKWMGWINTYTGEPTYTDDFKGRFAFSLDTSVSTAYLQISSLKADDTAVYFCARGGFGSSYWYADVWGQGSLVTVSSASTKGPSVFPLAPSSKSTSGGTAALGCLVKDYFPEPVTVSWNSGALTSGVHTFPAVLQSSGLYSLSSVVTVPSSSLGTQTYICNVNHKPSNTKVDKKVEPKSC
notes: Description names HisTag AviTag on the HC
Broadly, the EC50 is the concentration needed to bring the measured effect to its halfway point. As to B1, in experiment [1], the “TCE Cytotoxicity EC50, H292 + CD8+ T cells” value is 0.0004 nM; the “TCE Cytotoxicity EC50, HCT116 + CD8+ T cells” value is 0.0183 nM; the “TCE Cytotoxicity EC50, MDAMB231 + CD8+ T cells” value was determined as 0.0063 nM. Besides, the midpoint of the response in experiment [2], the EC50, lay at 7.3 nM.

B2: TCE-9 (anti-CD3 scFv wt + linker + anti-TROP2 HC wt; anti-TROP2 LC wt) (bispecific antibody)
light: DIQLTQSPSSLSASVGDRVSITCKASQDVSIAVAWYQQKPGKAPKLLIYSASYRYTGVPDRFSGSGSGTDFTLTISSLQPEDFAVYYCQQHYITPLTFGAGTKVEIKRTVAAPSVFIFPPSDEQLKSGTASVVCLLNNFYPREAKVQWKVDNALQSGNSQESVTEQDSKDSTYSLSSTLTLSKADYEKHKVYACEVTHQGLSSPVTKSFNRGEC
heavy: not shown
As to B2, the “H292 Cytotox EC50” value in [3], in [4] and in experiment [5] was 0.0007 nM each time.

B3: TCE-45 (anti-CD3 scFv F104A, anti-TROP2 HC D109A) (bispecific antibody)
light: DIQLTQSPSSLSASVGDRVSITCKASQDVSIAVAWYQQKPGKAPKLLIYSASYRYTGVPDRFSGSGSGTDFTLTISSLQPEDFAVYYCQQHYITPLTFGAGTKVEIKRTVAAPSVFIFPPSDEQLKSGTASVVCLLNNFYPREAKVQWKVDNALQSGNSQESVTEQDSKDSTYSLSSTLTLSKADYEKHKVYACEVTHQGLSSPVTKSFNRGEC
heavy: not shown
In the case of B3, the EC50 in experiment [6] came to 0.893 nM.

B4: TCE-40 (anti-CD3 scFv F240A, anti-TROP2 HC F108A) (bispecific antibody)
light: DIQLTQSPSSLSASVGDRVSITCKASQDVSIAVAWYQQKPGKAPKLLIYSASYRYTGVPDRFSGSGSGTDFTLTISSLQPEDFAVYYCQQHYITPLTFGAGTKVEIKRTVAAPSVFIFPPSDEQLKSGTASVVCLLNNFYPREAKVQWKVDNALQSGNSQESVTEQDSKDSTYSLSSTLTLSKADYEKHKVYACEVTHQGLSSPVTKSFNRGEC
heavy: not shown
For B4, the “CynoTROP2 + HEK293 cells Cytotox EC50” value in experiment [7] was 0.005 nM. Further, the EC50 was 0.482 nM with Cyno CD3 and 0.531 nM in experiment [9]. Moreover, the “HCT116 Cytotox EC50” value in experiment [8] was > 3 nM.

B5: TCE-41 (anti-CD3 scFv with P41S, A49G, N87S and further mutations as in TCE-35; anti-TROP2 HC F108A) (bispecific antibody)
light: DIQLTQSPSSLSASVGDRVSITCKASQDVSIAVAWYQQKPGKAPKLLIYSASYRYTGVPDRFSGSGSGTDFTLTISSLQPEDFAVYYCQQHYITPLTFGAGTKVEIKRTVAAPSVFIFPPSDEQLKSGTASVVCLLNNFYPREAKVQWKVDNALQSGNSQESVTEQDSKDSTYSLSSTLTLSKADYEKHKVYACEVTHQGLSSPVTKSFNRGEC
heavy: EVQLVESGGGLVQPGGSLKLSCAASGFTFNKYAMNWVRQASGKGLEWVGRIRSKYNNYATYYADSVKDRFTISRDDSKNTAYLQMNSLKTEDTAVYYCVRHGNFGNSYISYWAYWGQGTLVTVSSGGGGSGGGGSGGGGSQTVVTQEPSFSVSPGGTVTLTCRSSTGAVTSGNYANWVQQTPGQAPRGLIGGTKFLAPGVPDRFSGSILGNKAALTITGAQADDESDYYCVLWYSNRWVFGGGTKLTVLGGGGSQVQLQQSGSELKKPGASVKVSCKASGYTFTNYGMNWVKQAPGQGLKWMGWINTYTGEPTYTDDFKGRFAFSLDTSVSTAYLQISSLKADDTAVYFCARGGFGSSYWYADVWGQGSLVTVSSASTKGPSVFPLAPSSKSTSGGTAALGCLVKDYFPEPVTVSWNSGALTSGVHTFPAVLQSSGLYSLSSVVTVPSSSLGTQTYICNVNHKPSNTKVDKKVEPKSC
A word on the Kd: it is the concentration at which binding is half-saturated. In turn, B5 registered a dissociation constant (Kd) in experiment [10] of 1.22 nM. In addition, the “H292 Cytotox EC50” value in experiment [11] amounted to 0.003 nM. In addition, the “HCT116 Cytotox EC50” value in experiment [8] came out at 0.073 nM.

B6: TCE-7 (TROP2 Fab HC F108A TCE, scFv on the Fab HC) (bispecific antibody)
light: DIQLTQSPSSLSASVGDRVSITCKASQDVSIAVAWYQQKPGKAPKLLIYSASYRYTGVPDRFSGSGSGTDFTLTISSLQPEDFAVYYCQQHYITPLTFGAGTKVEIKRTVAAPSVFIFPPSDEQLKSGTASVVCLLNNFYPREAKVQWKVDNALQSGNSQESVTEQDSKDSTYSLSSTLTLSKADYEKHKVYACEVTHQGLSSPVTKSFNRGEC
heavy: not shown
notes: Description names a HisTag on the HC
With B6, in experiment [1], the “TCE Cytotoxicity EC50, H292 + CD8+ T cells” value was determined as 0.0056 nM; the “TCE Cytotoxicity EC50, HCT116 + CD8+ T cells” value came to 0.206 nM; the “TCE Cytotoxicity EC50, MDAMB231 + CD8+ T cells” value was 0.0478 nM. The EC50 in [2] stood at 1.4 nM.

B7: TCE-39 (anti-CD3 scFv F104A, anti-TROP2 HC F108A) (bispecific antibody)
light: DIQLTQSPSSLSASVGDRVSITCKASQDVSIAVAWYQQKPGKAPKLLIYSASYRYTGVPDRFSGSGSGTDFTLTISSLQPEDFAVYYCQQHYITPLTFGAGTKVEIKRTVAAPSVFIFPPSDEQLKSGTASVVCLLNNFYPREAKVQWKVDNALQSGNSQESVTEQDSKDSTYSLSSTLTLSKADYEKHKVYACEVTHQGLSSPVTKSFNRGEC
heavy: not shown
Regarding B7, the EC50 is 1.02 nM in [12], 0.671 nM with Cyno CD3 and 0.761 nM in experiment [9].

B8: TCE-37 (anti-CD3 scFv wt, anti-TROP2 HC F108A) (bispecific antibody)
light: DIQLTQSPSSLSASVGDRVSITCKASQDVSIAVAWYQQKPGKAPKLLIYSASYRYTGVPDRFSGSGSGTDFTLTISSLQPEDFAVYYCQQHYITPLTFGAGTKVEIKRTVAAPSVFIFPPSDEQLKSGTASVVCLLNNFYPREAKVQWKVDNALQSGNSQESVTEQDSKDSTYSLSSTLTLSKADYEKHKVYACEVTHQGLSSPVTKSFNRGEC
heavy: not shown
For the molecule B8, in experiment [7], the “CynoTROP2 + HEK293 cells Cytotox EC50” value was 0.0002 nM. Besides, the EC50 was 1.15 nM in [12] and 0.184 nM in the experiment with Cyno CD3. Further, the “H292 Cytotox EC50” value in experiment [11] worked out at 0.005 nM. Also, the “HCT116 Cytotox EC50” value in experiment [8] came out at 0.109 nM.

B9: TCE-44 (bispecific antibody)
light chain (anti-TROP2 LC wt): DIQLTQSPSSLSASVGDRVSITCKASQDVSIAVAWYQQKPGKAPKLLIYSASYRYTGVPDRFSGSGSGTDFTLTISSLQPEDFAVYYCQQHYITPLTFGAGTKVEIKRTVAAPSVFIFPPSDEQLKSGTASVVCLLNNFYPREAKVQWKVDNALQSGNSQESVTEQDSKDSTYSLSSTLTLSKADYEKHKVYACEVTHQGLSSPVTKSFNRGEC
heavy chain (anti-CD3 scFv H101A + linker + anti-TROP2 D109A HC): not shown
notes: also called anti-CD3 scFv (H101A) + linker + anti-TROP2 (D109A) HC; anti-TROP2 LC wt
Take B9: the EC50 in [6] amounted to 1.38 nM; in [13], 0.595 nM.

B10: TCE-46 (bispecific antibody)
light chain (anti-TROP2 LC wt): DIQLTQSPSSLSASVGDRVSITCKASQDVSIAVAWYQQKPGKAPKLLIYSASYRYTGVPDRFSGSGSGTDFTLTISSLQPEDFAVYYCQQHYITPLTFGAGTKVEIKRTVAAPSVFIFPPSDEQLKSGTASVVCLLNNFYPREAKVQWKVDNALQSGNSQESVTEQDSKDSTYSLSSTLTLSKADYEKHKVYACEVTHQGLSSPVTKSFNRGEC
heavy chain (anti-CD3 scFv F240A + linker + anti-TROP2 D109A HC): not shown
notes: also called anti-CD3 scFv (F240A) + linker + anti-TROP2 (D109A) HC; anti-TROP2 LC wt
B10: the EC50 in experiment [13] worked out at 1.09 nM.

The record behind these values is US20250154278A1 (JANUX THERAPEUTICS, published 2025).
